Data as given in patent US20200347139A1 (INHIBRX BIOSCIENCES, published 2020).
Positions count from the first letter of the chain named.

T1: mFc-CLEC12a-ECD (human)
T1 construct: It was immobilized on anti-mFc capture sensors for BLI; also called CLEC12a antigen
T1 chain: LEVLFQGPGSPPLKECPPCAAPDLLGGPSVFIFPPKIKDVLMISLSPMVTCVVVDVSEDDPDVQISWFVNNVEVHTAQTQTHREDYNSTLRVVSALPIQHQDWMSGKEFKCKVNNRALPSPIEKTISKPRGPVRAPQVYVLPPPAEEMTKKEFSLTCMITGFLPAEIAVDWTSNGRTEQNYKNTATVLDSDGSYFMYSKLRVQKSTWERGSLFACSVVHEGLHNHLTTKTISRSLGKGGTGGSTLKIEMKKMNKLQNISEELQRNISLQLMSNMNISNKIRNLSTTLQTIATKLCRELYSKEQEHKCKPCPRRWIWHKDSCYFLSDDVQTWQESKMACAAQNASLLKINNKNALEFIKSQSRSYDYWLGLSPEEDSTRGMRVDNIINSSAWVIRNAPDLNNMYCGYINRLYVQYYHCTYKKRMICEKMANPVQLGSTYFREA

T2: human CLEC12a expressed on transiently transfected HEK 293 cells (human, UniProt Q5QGZ9 1-265)
T2 construct: also called CLL-1; CLL1
T2 sequence: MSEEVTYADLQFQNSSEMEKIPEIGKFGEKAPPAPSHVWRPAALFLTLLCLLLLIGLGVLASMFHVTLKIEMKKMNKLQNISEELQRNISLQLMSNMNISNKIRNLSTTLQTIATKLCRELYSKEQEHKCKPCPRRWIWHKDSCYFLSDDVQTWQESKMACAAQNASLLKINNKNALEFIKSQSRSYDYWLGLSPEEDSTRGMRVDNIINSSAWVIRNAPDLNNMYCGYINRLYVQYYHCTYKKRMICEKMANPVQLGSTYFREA

B1: hzMC02v6 sdAb (VHH hzMC02v6 fused to human IgG1 xELL Fc) (Fc fusion)
chain: EVQLVESGGGEVQPGGSLRLSCAASGFTFRINDMGWYRQAPGKECEMVAGISNNGFSTAYAESVKGRFTISRDNAKNTVYLQMSSLRAEDTAVYYCHRTDEGAAHACSRGQGTLVTVDKTHTCPPCPAPGGPSVFLFPPKPKDTLMISRTPEVTCVVVDVSHEDPEVKFNWYVDGVEVHNAKTKPREEQYNSTYRVVSVLTVLHQDWLNGKEYKCKVSNKALPAPIEKTISKAKGQPREPQVYTLPPSRDELTKNQVSLTCLVKGFYPSDIAVEWESNGQPENNYKTTPPVLDSDGSFFLYSKLTVDKSRWQQGNVFSCSVMHEALHNHYTQKSLSLSPGK
notes: Humanized version of MC02; No linker is stated; also called hzMC02v6-IgG1
B2: hzMH07v3 sdAb (VHH hzMH07v3 fused to human IgG1 xELL Fc) (Fc fusion)
chain: EVQLVESGGGEVQPGGSLRLSCAASGLLFSIYDMNWYRQAPGKEREWVAGITNNGYSTAYAESVKGRFTISRDNAKNTVYLQMSSLRAEDTAVYYCHTDEWGREYWGQGTLVTVDKTHTCPPCPAPGGPSVFLFPPKPKDTLMISRTPEVTCVVVDVSHEDPEVKFNWYVDGVEVHNAKTKPREEQYNSTYRVVSVLTVLHQDWLNGKEYKCKVSNKALPAPIEKTISKAKGQPREPQVYTLPPSRDELTKNQVSLTCLVKGFYPSDIAVEWESNGQPENNYKTTPPVLDSDGSFFLYSKLTVDKSRWQQGNVFSCSVMHEALHNHYTQKSLSLSPGK
notes: Humanized version of MH07; No linker is stated; also called hzMH07v3-IgG1; haMH07v3
B3: hzMC06v2 sdAb (VHH hzMC06v2 fused to human IgG1 xELL Fc) (Fc fusion)
chain: EVQLVESGGGEVQPGGSLRLSCAASGFTFSVYDMNWYRQAPGKEREWVSGISNNGFSTAYAESVKGRFTISRDNAKNTLYLQMSSLRAEDTAVYYCNLDVHGRVGAQGDYWGQGTLVTVDKTHTCPPCPAPGGPSVFLFPPKPKDTLMISRTPEVTCVVVDVSHEDPEVKFNWYVDGVEVHNAKTKPREEQYNSTYRVVSVLTVLHQDWLNGKEYKCKVSNKALPAPIEKTISKAKGQPREPQVYTLPPSRDELTKNQVSLTCLVKGFYPSDIAVEWESNGQPENNYKTTPPVLDSDGSFFLYSKLTVDKSRWQQGNVFSCSVMHEALHNHYTQKSLSLSPGK
notes: Humanized version of MC06; No linker is stated; also called hzMC06v2-IgG1
B4: MB11 sdAb (VHH MB11 fused to human IgG1 xELL Fc) (Fc fusion)
chain: QVQLQQSGGGLVQPGGSLRLSCVASGFLFSIYDMNWYRQAPGKEREWIAGITNNGYSTAYTDSVQGRFTISRDNAKNTIYLQMTSLKPEDTAVYYCHADLTKCYDGEYAWGQGTQVTVDKTHTCPPCPAPGGPSVFLFPPKPKDTLMISRTPEVTCVVVDVSHEDPEVKFNWYVDGVEVHNAKTKPREEQYNSTYRVVSVLTVLHQDWLNGKEYKCKVSNKALPAPIEKTISKAKGQPREPQVYTLPPSRDELTKNQVSLTCLVKGFYPSDIAVEWESNGQPENNYKTTPPVLDSDGSFFLYSKLTVDKSRWQQGNVFSCSVMHEALHNHYTQKSLSLSPGK
notes: Camelid parental VHH; No linker between VHH and Fc is stated; Fc dimers are described only in general terms; also called MB11-IgG1
B5: ME02 sdAb (VHH ME02 fused to human IgG1 xELL Fc) (Fc fusion)
chain: QVQLQQSGGGLVQVGGSQRLSCAASGRTFEYDDMVWFRQAPGKEREEVAGISWSGGSIYYADSVKGRFSISRDNAKNTVYLEMNRLKPEDTAVYYCNVGSYWGQGTQVTVDKTHTCPPCPAPGGPSVFLFPPKPKDTLMISRTPEVTCVVVDVSHEDPEVKFNWYVDGVEVHNAKTKPREEQYNSTYRVVSVLTVLHQDWLNGKEYKCKVSNKALPAPIEKTISKAKGQPREPQVYTLPPSRDELTKNQVSLTCLVKGFYPSDIAVEWESNGQPENNYKTTPPVLDSDGSFFLYSKLTVDKSRWQQGNVFSCSVMHEALHNHYTQKSLSLSPGK
notes: Camelid parental VHH; No linker is stated; also called ME02-IgG1
B6: hzME02v4 sdAb (VHH hzME02v4 fused to human IgG1 xELL Fc) (Fc fusion)
chain: B5 chain with Q1E, Q5V, Q6E, L11E, V14P, Q18L, D62E, Q107L
notes: Humanized version of ME02; No linker is stated; also called hzME02v4-IgG1
B7: MC06 sdAb (VHH MC06 fused to human IgG1 xELL Fc) (Fc fusion)
chain: QVQLQESGGGLVQPGGSLRLSCAASGFTFSVYDMNWYRQTPGKEREWVAGISNNGFSTAYAGSVKGRFTISRDNAENTVYLQMNSLKSEDTAVYYCNLDVHGRVGAQGDYWGQGTQVTVDKTHTCPPCPAPGGPSVFLFPPKPKDTLMISRTPEVTCVVVDVSHEDPEVKFNWYVDGVEVHNAKTKPREEQYNSTYRVVSVLTVLHQDWLNGKEYKCKVSNKALPAPIEKTISKAKGQPREPQVYTLPPSRDELTKNQVSLTCLVKGFYPSDIAVEWESNGQPENNYKTTPPVLDSDGSFFLYSKLTVDKSRWQQGNVFSCSVMHEALHNHYTQKSLSLSPGK
notes: Camelid parental VHH; No linker is stated; also called MC06-IgG1
B8: hzME06v16 sdAb (VHH hzME06v16 fused to human IgG1 xELL Fc) (Fc fusion)
chain: EVQLVESGGGEVQPGGSLRLSCAASGFTFDDYAIGWFRQAPGKEREGVSTISSSDGSTYYAESVKGRFTISRDNAKNTVYLQMSSLRAEDTAVYYCALREGLPLLLDTLWRQPVEYDYWGQGTQVTVDKTHTCPPCPAPGGPSVFLFPPKPKDTLMISRTPEVTCVVVDVSHEDPEVKFNWYVDGVEVHNAKTKPREEQYNSTYRVVSVLTVLHQDWLNGKEYKCKVSNKALPAPIEKTISKAKGQPREPQVYTLPPSRDELTKNQVSLTCLVKGFYPSDIAVEWESNGQPENNYKTTPPVLDSDGSFFLYSKLTVDKSRWQQGNVFSCSVMHEALHNHYTQKSLSLSPGK
notes: Humanized version of ME06; No linker is stated; also called hzME06v16-IgG1
B9: MC02 sdAb (VHH MC02 fused to human IgG1 xELL Fc) (Fc fusion)
chain: QVQLVQSGGGLAQPGGSLRLSCTASGFTFRINDMGWYRQAPGKECEMVAGISNNGFSTAYADSVKGRFTISRDNAKNTVSLQMDSLKSEDTAVYYCHRTDDGAAHACSRGQGTQVTVDKTHTCPPCPAPGGPSVFLFPPKPKDTLMISRTPEVTCVVVDVSHEDPEVKFNWYVDGVEVHNAKTKPREEQYNSTYRVVSVLTVLHQDWLNGKEYKCKVSNKALPAPIEKTISKAKGQPREPQVYTLPPSRDELTKNQVSLTCLVKGFYPSDIAVEWESNGQPENNYKTTPPVLDSDGSFFLYSKLTVDKSRWQQGNVFSCSVMHEALHNHYTQKSLSLSPGK
notes: Camelid parental VHH; No linker is stated; also called MC02-IgG1
B10: MH07 sdAb (VHH MH07 fused to human IgG1 xELL Fc) (Fc fusion)
chain: QVQLVQSGGGLVQPGGSLRLSCVASGLLFSIYDMNWYRQAPGKEREWIAGITNNGYSTAYTDSVQGRFTISRDNAKNTVYLQMNSLKPEDTAVYYCHTDEWGREYWGQGTQVTVDKTHTCPPCPAPGGPSVFLFPPKPKDTLMISRTPEVTCVVVDVSHEDPEVKFNWYVDGVEVHNAKTKPREEQYNSTYRVVSVLTVLHQDWLNGKEYKCKVSNKALPAPIEKTISKAKGQPREPQVYTLPPSRDELTKNQVSLTCLVKGFYPSDIAVEWESNGQPENNYKTTPPVLDSDGSFFLYSKLTVDKSRWQQGNVFSCSVMHEALHNHYTQKSLSLSPGK
notes: Camelid parental VHH; No linker is stated; also called MH07-IgG1
B11: ME06 sdAb (VHH ME06 fused to human IgG1 xELL Fc) (Fc fusion)
chain: QVQLVQSGGGLVQAGGSLRLSCVASGFTFDDYAIGWFRQAPGKEREGVSCISNSDGSTYYADSVKGRFTISSDNAKNTVYLHVNSLNPEDTAVYYCALREGLPLLLDSLWRQPVEYDYWGQGTQVTVDKTHTCPPCPAPGGPSVFLFPPKPKDTLMISRTPEVTCVVVDVSHEDPEVKFNWYVDGVEVHNAKTKPREEQYNSTYRVVSVLTVLHQDWLNGKEYKCKVSNKALPAPIEKTISKAKGQPREPQVYTLPPSRDELTKNQVSLTCLVKGFYPSDIAVEWESNGQPENNYKTTPPVLDSDGSFFLYSKLTVDKSRWQQGNVFSCSVMHEALHNHYTQKSLSLSPGK
notes: Camelid parental VHH; No linker is stated; also called ME06-IgG1

Biological target: T1, mFc-CLEC12a-ECD
Assay: BLI epitope binning; mFc-CLEC12a-ECD on anti-mFc sensors, 100 nM sdAb
Experimental: (§1) The epitopes of single domain antibodies (sdAbs) that comprise VHH domains that bind CLEC12a were compared using Bio-Layer Interferometry. 7 μg/mL of mFc-CLEC12a-ECD (SEQ ID NO: 87) was immobilized on anti-mFc coated capture sensors. 100 nM of one sdAb was then loaded onto the CLEC12a antigen and allowed to come to equilibrium. The sensors were then transferred into 100 nM of a second sdAb.

| binding result | Binder |
| --- | --- |
| binds | B1 |
| binds | B2 |
| binds | B3 |

Biological target: T2, human CLEC12a expressed on transiently …
Assay: flow cytometry on HEK 293 cells transiently transfected with human CLEC12a, Alexa Fluor 647 anti-human IgG secondary, median fluorescence
Experimental: (§2) Binding of sdAbs to human CLEC12a was assessed by flow cytometry. […] HEK 293 cells were transiently transfected with a plasmid encoding CLEC12a (UniProt Accession No. Q5QGZ9.3; SEQ ID NO: 1) and used as the positive cell line, and untransfected HEK 293 cells were used as CLEC12a-negative cells. Each cell type was plated at 30,000 cells/well in FACS buffer (PBS 1% BSA, 0.1% NaN₃ pH 7.4) on a 96-well round-bottom plate. The sdAbs were diluted in FACS buffer in a 3-fold, 11 point serial dilution. The sdAb dilutions were added to the plated cells, and assay plates were incubated for 30 minutes at 4° C. After washing twice in 150 μL of FACS buffer, cells in each well were resuspended in 100 μL of 1:2000 Alexa Fluor 647-conjugated Anti-Human IgG secondary diluted in FACS buffer and incubated at 4° C. for 30 minutes. The cells were washed twice more, then bound antibody was detected by flow cytometry.
(§3) Flow cytometric analysis was performed on an Intellicyte iQue Plus and fluorescence was plotted as median fluorescence intensity. The apparent affinity (Kd, nM) was determined using one site binding non-linear regression in PRISM graph software.

| EC50 (read off the curve) [pM] | Binder |
| --- | --- |
| ~50000 | B4 |
| ~1000 | B5 |
| ~800 | B6 |
| 1000 to 2000 | B7 |
| ~10000 | B3 |

Biological target: T2, human CLEC12a expressed on transiently …
Assay: flow cytometry on HEK 293 cells transfected with human CLEC12a; apparent Kd, one-site fit
Experimental: as §2, §3

| Kd [pM] | Binder |
| --- | --- |
| 58600 | B4 |
| 60 | B8 |
| 1200 | B5 |
| 870 | B6 |
| 370 | B9 |
| 350 | B1 |
| 100 | B10 |
| 280 | B2 |
| 1580 | B7 |
| 14000 | B3 |
| 50 | B11 |

Biological target: T1, mFc-CLEC12a-ECD
Assay: BLI, mFc-CLEC12a-ECD on anti-mFc sensors first loaded with 100 nM hzMB11v13, then 100 nM second sdAb
Experimental: as §1

| binding result | Binder |
| --- | --- |
| binds | B8 |
| binds | B6 |
